# Assay results: paper PMC9239104, “Scaffolding Protein GspB/OutB Facilitates Assembly of the Dickeya dadantii Type 2 Secretion System by Anchoring the Outer Membrane Secretin Pore to the Inner Membrane and to the Peptidoglycan Cell Wall” (mBio, 2022)
# T1: OutD N0-N1-N2 domains (residues 1 to 258 of signal peptide-less OutD), purified (Dickeya dadantii, UniProt Q01565 28-285)
# T1 construct: secretin OutD (GspD) of Dickeya dadantii, N0, N1 and N2 domains, residues A1 to V258; numbers count on: the mature protein
# T1 sequence: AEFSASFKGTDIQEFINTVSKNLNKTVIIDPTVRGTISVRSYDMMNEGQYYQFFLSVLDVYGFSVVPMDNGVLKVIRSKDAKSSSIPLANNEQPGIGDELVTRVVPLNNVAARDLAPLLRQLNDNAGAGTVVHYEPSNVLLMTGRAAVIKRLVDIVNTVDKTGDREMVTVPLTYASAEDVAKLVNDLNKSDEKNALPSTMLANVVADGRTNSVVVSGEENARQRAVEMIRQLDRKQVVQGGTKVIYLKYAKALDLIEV
# B1: OutB HR domain (residues P112 to K220), purified (domain or fragment)
# chain: PAKLVTGWQTAKPGELPYIAFSAHVYTSAPDKRSVTLNGERYREGDSPYQGLVIEQIEQDMVIFSFNGEPFILDSLQDWPGGKPGDDAAQGNEQEPTSKPEQTVRTTKK
# notes: OutB (GspB) of Dickeya dadantii, conserved periplasmic domain, residues 112 to 220; uniformly 15N-labelled where it was the observed protein; the NMR methods speak of residues 112 to 193, the results and legends of 112 to 220; also called OutB^112–220; 15N-labeled OutB HR domain; source: E. coli BL21(DE3), purified (glutathione Sepharose, on-column PreScission cleavage, Superdex S200); not shown: …
# How the values were obtained:
# [1] = biological target: OutD N0 domain (residues 1 to 85 of signal peptide-less OutD), purified (Dickeya dadantii) (UniProt Q01565); assay: NMR titration; competition: 15N OutB HR 40 μM, unlabelled OutD N0 60 μM, unlabelled OutC HR 120, 240 and 360 μM; HSQC chemical shifts
# [2] = biological target: T1, OutD N0-N1-N2 domains (residues 1 to …); assay: NMR titration; 1H-15N HSQC of a 15N-labelled domain alone or with the unlabelled partner; each protein 200 μM; 15°C, 20 mM Tris-HCl pH 7.0, 10% D2O; conditions: both partners purified
# [3] = biological target: B1; assay: NMR titration; competition: 15N OutB HR 40 μM, unlabelled OutD N0 60 μM, unlabelled OutC HR 120, 240 and 360 μM; HSQC chemical shifts; conditions: both partners purified
molecule,measurement,setting,value
OutC HR domain (residues A78 to S158) (domain or fragment),Kd,[1],1 mM
B1,binding result,[2],binds
"OutD N0 domain (residues 1 to 85 of signal peptide-less OutD), purified (domain or fragment, secretin OutD (GspD) of Dickeya dadantii, N0 domain, residues A1 to S85; numbers count on: the mature protein; 15N-labelled in the reciprocal experiment) AEFSASFKGTDIQEFINTVSKNLNKTVIIDPTVRGTISVRSYDMMNEGQYYQFFLSVLDVYGFSVVPMDNGVLKVIRSKDAKSSS",Kd,[3],~10 µM
